Assay results from the supplement of paper PMC9170038.

System: MS2 coat protein
Assay: apparent KD of MS2 coat protein; designed switch direction (-1 OFF switch, 1 ON switch): -1; higher = weaker reporter binding
Outline: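 The apparent KD reported per design is the median over clusters of curve fits to normalised cluster fluorescence. The RNA switches were transcribed on Illumina chips by stalled E. coli RNA polymerase. SNAP-549-labelled MS2 coat protein was titrated from 0.7 or 1.5 nM, doubling up to 3 µM, in Tris-HCl pH 7.5 buffer containing KCl, MgCl2, BSA, DTT, tRNA and Tween-20, with no input, 200 uM small-molecule ligand, or an oligonucleotide input.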

[1] = Eterna round: R95, input ligand: microRNA oligo, concentration not stated
[2] = input ligand: microRNA oligo, concentration not stated

Row | Sequence | apparent KD of MS2 coat protein [1] [nM] | apparent KD of MS2 coat protein (input ligand: FMN 200 uM) [nM] | apparent KD of MS2 coat protein (input ligand: none) [nM] | apparent KD of MS2 coat protein [2] [nM] | apparent KD of MS2 coat protein (Eterna round: R95, input ligand: FMN 200 uM) [nM] | apparent KD of MS2 coat protein (Eterna round: R95, input ligand: none) [nM]
1 | GUGUAGUCAGGAUAUACAUAGGAAGAGAAGAGAAGAUAAGCACAUGAGGAUCACCCAUGUAGAAGGGACAGUGU [Excluse me!! 3 - Jieux - Exclusion 2] (puzzle: Exclusion 2) | 57.4 |  |  |  |  | 
2 | GUUAAUUGUGACAUGGGUGACAUGAGGAUCACCCAUGUCACAAGCUUUUUGUUCGUCUUAUAAUUAACCCAUGUCAC [Stov1/13-B2] (Eterna round: R97, puzzle: Sensor, turn-off variant 1) |  | 79.8 | 94.8 |  |  | 
3 | GUUCGACAUGAGGAUCACCCAUGUGAGGAUAUACGAUUAGCUGCUAGGUAGUUAGUAUGUAGAAGGUGCGUGUU [EX1 #70] (Eterna round: R97, puzzle: Exclusion 1) |  | 53.3 | 54.2 |  |  | 
4 | UAAAACGGAGGAUAUACUGACCCUCAAAACAGACGCGCUGGACAUGAGGAUCACCCAUGUAGAAGGCCGAAUGC [Titeustele] (puzzle: Exclusion 2) | 21.7 |  |  |  |  | 
5 | UAAACAAGCGAAAGAUCCCACAUGAGGAUCACCCAUGUGCUCGUCUUAUAAGGUACUGUGACGAAAGUCACGGUACC [Sensor 3, v1 - 91 v19] (Eterna round: R97, puzzle: Sensor, turn-off variant 1) |  | 37.9 | 41 |  |  | 
6 | UAAAGUAUAUAGGAUAUCUAGCUGGAUACAGCUAGAGAAGGAUGUACAUGAGGAUCACCCAUGUAAAUCAGUGA [Ex6/14-A3] (Eterna round: R97, puzzle: Exclusion 6) |  | 33.9 | 16.5 |  |  | 
7 | UAAAUAAAUGUAGGAUAUCUGCACGUGUAGUGCAGAGAAGGACAUGAGGAUCACCCAUGUAUAGUAGCUUCGGCUACAAAUAAU [ENG1-C3] (Eterna round: R96, puzzle: Exclusion NG 1) |  | 110 | 88.8 | 69.3 |  | 
8 | UAAGAAUACCGAGGAUAUGGUAGUACAUAUUUACCAGAAGGCGGACUCAACAUGAGGAUCACCCAUGUAUAAAGGGUAUUAGGU [JR_ExcNG1_Sub043] (Eterna round: R96, puzzle: Exclusion NG 1) |  | 94.1 | 64.3 | 58.3 |  | 
9 | UAAGAAUACUGAGGAUAUGCUAGUUUAUCUCAAGCAGAAGGCGGACUCAACAUGAGGAUCACCCAUGUAAGACGGGUACUAGAU [Ex NG1 #13] (Eterna round: R96, puzzle: Exclusion NG 1) |  | 319 | 832 | 59 |  | 
10 | UAAGAGUAUGUUAGGAUAUGCUGGUCCUUGGAUCAGCAGAAGGAACAUGAGGAUCACCCAUGUAGAAUCUUUUA [Mod of JL 17 - Jieux - Brourd's mod of Exclusion 4] (Eterna round: R97, puzzle: Brourd's mod of Exclusion 4) |  | 74.8 | 21.3 |  |  | 
11 | UAAGCAAGUGAGCCGAUUCACAUGAGGAUCACCCAUGUAAGAGAGGAUAUUUGAUUGGAUCGAUUAGAGAAGGUUCUAAUGUGG [Eternabot solution 25] (Eterna round: R96, puzzle: Exclusion NG 3) |  | 87.2 | 37.2 | 28.9 |  | 
12 | UAAGCUCUGUCAGGAUAUCCCUGUAAACGCAACGGAGAAGGGACAUGAGGAUCACCCAUGUGCGGGCCCAACGCGCUUGGGUCC [Gelaisve] (Eterna round: R96, puzzle: Exclusion NG 1) |  | 56.6 | 26.3 | 20.6 |  | 
13 | UAAUAACAAGCGAGAUCCUACAUGAGGAUCACCCAUGUGCUCGUCUUAUAAGGUACUGUGACGAAAGUCACGGUACC [Eli 87 + Mat D67] (Eterna round: R97, puzzle: Sensor, turn-off variant 1) |  | 17.9 | 20.1 |  |  | 
14 | UAAUAGAUGGUUAGGAUAUGCUGGCCUAGGCCGCGGCAGAAGGAACAUGAGGAUCACCCAUGUAGUAGGAUCCA [Eternabot (L2) Solution 15] (Eterna round: R97, puzzle: Brourd's mod of Exclusion 4) |  | 204 | 98.6 |  |  | 
15 | UAAUAGUGAGGAUAUACAGAAUCUGGGUCCCGCGUGUUGAGACAUGAGGAUCACCCAUGUAGAAGGCACAAAAU [Tetiage] (puzzle: Exclusion 2) | 112 |  |  |  |  | 
16 | UAAUGUAUAUAGGAUAUCUAGCUGGAAACAGCUAGAGAAGGAUGUACAUGAGGAUCACCCAUGUAAAUCUCAAU [Ex6/12-B1] (Eterna round: R97, puzzle: Exclusion 6) |  | 27.4 | 19.1 |  |  | 
17 | UAAUUAAAUGUAGGAUAUCUGCACGUGUAGUGCAGAGAAGGACAUGAGGAUCACCCAUGUAGAUCAAAUUAAAUUAAUUUAAUU [ENG1/5-D3] (Eterna round: R96, puzzle: Exclusion NG 1) |  | 54 | 23.7 | 21.5 |  | 
18 | UAAUUAAGUGUGAGGAUAUGCUGGUCCUUGGAUCAGCAGAAGGCACAUGAGGAUCACCCAUGUAAUAUAUAUAU [Mat - Exclusion 4 - JL Mod - D53] (puzzle: Brourd's mod of Exclusion 4) | 108 |  |  |  | 361 | 104
19 | UAAUUAAUAAGAUCAAUUAAUUAACAUGAGGAUCACCCAUGUGAGGAUAUCAGCUCGUUUAGAGCUGAGAAGGCACAAUAAUUA [ExNG3/17-C2] (Eterna round: R96, puzzle: Exclusion NG 3) |  | 72 | 46.8 | 41.6 |  | 
20 | UAAUUAAUUAAUUAAUAAUACAUGAGGAUCACCCAUGUAGAUCCUACAUACAAUUUAAGUAGCUCGUCUUAUAAUUA [Stov1/1-A1] (Eterna round: R97, puzzle: Sensor, turn-off variant 1) |  | 206 | 264 |  |  | 
21 | UAAUUACAUGAGGAUCACCCAUGUGAGGAUAUGUCCAUAUUCGGCAAAUCGGAUAUGGACAGAAGGCACACCGG [JR_Exclusion1_Sub009] (puzzle: Exclusion 1) | 55.8 |  |  |  |  | 
22 | UACACUGCAUGAGGAUCAAACAUGAGGAUCACCCAUGUGUAGCAAGCUUUUUGCUCGUCUUAUAAAUAUGUAGUGUA [Electric Eye 10 - Jieux - Sensor, turn-off variant 1] (Eterna round: R97, puzzle: Sensor, turn-off variant 1) |  | 13.4 | 12.9 |  |  | 
23 | UACAUGAGGAUCACCCAUGUUUUGUCGUGUAUGGUAUUUAUCUAGGAUAUCAAGUUAAUUAUUUAUGAGAAGGAGAAUAUUAAU [JMF's solution 28] (Eterna round: R96, puzzle: Exclusion NG 3) |  | 37 | 39 | 31.7 |  | 
24 | UACAUGAGGAUCACCCAUGUUUUGUCGUGUAUGGUAUUUAUCUAGGAUAUCAAGUUACUUAUUUAUGAGAAGGAGAAUAUUAAU [JMF's solution 30] (Eterna round: R96, puzzle: Exclusion NG 3) |  | 39.2 | 25.2 | 21.2 |  | 
25 | UACAUGAGGAUCACCCAUGUUUUGUCGUGUAUGGUAUUUAUCUAGGAUAUCAAUCAAUUUAUUUAUGAGAAGGAGAAUAUUAAU [JMF's solution 49] (Eterna round: R96, puzzle: Exclusion NG 3) |  | 37.8 | 33.8 | 26 |  | 
26 | UACAUGAGGAUCACCCAUGUUUUGUCGUGUAUGGUAUUUAUCUAGGAUAUCAAUGUAUUUAGUUAUGAGAAGGAGAAUAUUAAU [JMF's solution 46] (Eterna round: R96, puzzle: Exclusion NG 3) |  | 38.1 | 35.3 | 32 |  | 
27 | UACAUGAGGAUCACCCAUGUUUUGUCGUGUAUGGUAUUUAUCUAGGAUAUCAAUUUAUUUAUUUAUGAGAAGGAGAAUAUUAAU [JMF's solution 5] (Eterna round: R96, puzzle: Exclusion NG 3) |  | 36.3 | 41.2 | 28.1 |  | 
28 | UACAUGAGGAUCACCCAUGUUUUGUCGUGUAUGGUAUUUAUCUAGGAUAUCGUGUUAUUUAACCACGAGAAGGAGAGUAUCAAU [MOD3 Solution 21 by JMF] (Eterna round: R96, puzzle: Exclusion NG 3) |  |  |  | 21.5 |  | 
29 | UACCAGGUUCAGGAUAUGCCCUCGAAGAGAGGCGCAGAAGGGAACACAUGAGGAUCACCCAUGUCAGCCGCUUC [Eternabot (Original) Solution 45] (Eterna round: R97, puzzle: Exclusion 6) |  | 26.6 | 17.1 |  |  | 
30 | UACGAGUUAGGAUAUGCAUUGGGCUCGCUUUCCUUCGAUAAACUUGAGGAUCACCCAAGUAGAAGGAACUUGUA [Mod 35 - Jieux - Exclusion 2] (Eterna round: R97, puzzle: Exclusion 2) |  | 42.3 | 16.4 |  |  | 
